Measured values as given in patent publication US7553617B1, “Peptide library and screening systems” (Affymax, Inc., priority 1990, dated 2009).
Where no end group is shown, it is not given here.

Legend:
3E7 antibody = experiment: Solution radioimmunoassay, inhibition of [125I]b-endorphin binding to mAb 3E7; details: for IC50: geometric mean, 30 pM [125I]b-endorphin, 20% tracer bound, 18 hr. incubation, 0.25 μg/ml 3E7; for Affinity Relative to YGGFL (SEQ ID NO: 125): relative to YGGFL = 1
Experimental: The peptides were synthesized according to well known protocols, as described in, for example, Merrifield, Science 232:341-347 (1986), incorporated by reference herein. A solution radioimmunoassay was used to estimate the binding affinities of peptides for mAb 3E7. Solution radioimmunoassay using [^125I]b-endorphin (20,000 cpm) and purified 3E7 antibody (0.25 μg/ml) was conducted as described by Meo et al., supra, with the exception that the final volume was 150 μl. Antibody-bound and free [^125I]b-endorphin were separated by addition of activated charcoal followed by centrifugation, as described in Ghazarassian et al., Life Sciences 27:75-86 (1980). Antibody-bound [^125I]b-endorphin in the supernatant was measured in a gamma counter. […] J. Physiol. 235:E97-E102 (1978).

Monoclonal antibody 3E7 [1] = details: Meo et al., Herz et al., Gramsch et al.; cited from earlier work
Monoclonal antibody 3E7 [2] = experiment: solution RIA, displacement of [125I]b-endorphin from mAb 3E7
Monoclonal antibody 3E7 [3] = experiment: solution RIA, 30 pM tracer, 18 hr incubation
Monoclonal antibody 3E7 [4] = experiment: binding experiments with mAb 3E7 and [3H]YGGFL, room temperature

Molecule	IC50 (3E7 antibody)	Affinity Relative to YGGFL (SEQ ID NO: 125) (3E7 antibody)	Affinity Relative to YGGFL (Monoclonal antibody 3E7 [2])	IC50 (Monoclonal antibody 3E7 [2])	also measured
YGPFWS [YGPFWS]	1.9 µM	0.0037			
YGGFM: met-enkephalin, natural opioid peptide					binding to antibody 3E7 (Monoclonal antibody 3E7 [1]): binds tightly
YGGFL [Tyr-Gly-Gly-Phe-Leu, reference compound]	0.0071 µM	1			binding to antibody 3E7 (Monoclonal antibody 3E7 [1]): binds tightly
YGGFPD [YGGFPD]	2.3 µM	0.0031			
GFL (peptide)			< 7.1e-06		
YGG (peptide)			< 7.1e-06		
YGGWAG [YGGWAG]	7.8 µM	0.00091			
YGGF [Tyr-Gly-Gly-Phe, reference compound]	0.19 µM	0.037			
YGFWGM [YGFWGM]	0.35 µM	0.020			
YGNWTY [YGNWTY]	7.8 µM	0.00091			
[125I-tyr28]b-endorphin (from UniProt P01189 237-267) (peptide)					tracer bound (Monoclonal antibody 3E7 [3]): 20%
YAGFAQ [YAGFAQ]	8.3 µM	0.00086			
GGF (peptide)			< 7.1e-06		
YGFWGM			0.02	0.35 µM	
YAGFAQ			0.00086	8.3 µM	
YGGWAG			0.00091	7.8 µM	
YGGF			0.037	0.19 µM	
GGFL			< 7.1e-06		
YGGFL			1	0.0071 µM	dissociation t1/2 (Monoclonal antibody 3E7 [4]): 45 s
YGNWTY			0.00091	7.8 µM	
YGGFPD			0.0031	2.3 µM	
YGPFWS			0.0037	1.9 µM	
